The record followed here is patent US20240123070A1 (SHANGHAI GENBASE BIOTECHNOLOGY, published 2024).

The assay addresses KRAS G13D antigen (G13D-RT6, SEQ ID NO: 20) loaded on Lovo-DPA0301:DPB0501 cells (human). Nature of the assay: cell-based or functional assay.

Where a chain is given by its changes, count along the chain named.

B1: B8.2.4 TCR mutant β98P-Y (TCR, V domains shown)
V domain 1: AQKITQTQPGMFVQEKEAVTLDCTYDTSDPSYGLFWYKQPSSGEMIFLIYQGSYDQQNATEGRYSLNFQKARKSANLVISASQLGDSAMYFCAMRERTGTASKLTFGTGTRLQVTL
V domain 2: DVKVTQSSRYLVKRTGEKVFLECVQDMDHENMFWYRQDPGLGLRLIYFSYDVKMKEKGDIPEGYSVSREKKERFSLILESASTNQTSMYLCASSQTVYPQHFGDGTRLSILE
As for B1, the “TCR Mut RLU/WT RLU” value worked out at 0.25 ratio.

B2: B8.2.4 TCR mutant β97V-F (TCR, V domains shown)
V domain 1: B1 V domain 1
V domain 2: B1 V domain 2 with V97F, Y98P
As to B2, the “TCR Mut RLU/WT RLU” value is 0.31 ratio.

B3: B8.2.4 TCR mutant β96T-Q (TCR, V domains shown)
V domain 1: B1 V domain 1
V domain 2: B1 V domain 2 with T96Q, Y98P
On to B3, for which the “TCR Mut RLU/WT RLU” value was found to be 0.57 ratio.

B4: B8.2.4 TCR mutant β95Q-A (TCR, V domains shown)
V domain 1: B1 V domain 1
V domain 2: B1 V domain 2 with Q95A, Y98P
Take B4: the “TCR Mut RLU/WT RLU” value was 0.86 ratio.

B5: B8.2.4 TCR mutant β96T-E (TCR, V domains shown)
V domain 1: B1 V domain 1
V domain 2: B1 V domain 2 with T96E, Y98P
With B5, the “TCR Mut RLU/WT RLU” value turned out to be 0.06 ratio.

B6: B8.2.4 TCR mutant β95Q-T (TCR, V domains shown)
V domain 1: B1 V domain 1
V domain 2: B1 V domain 2 with Q95T, Y98P
B6: the “TCR Mut RLU/WT RLU” value came out at 0.59 ratio.

B7: B8.2.4 TCR mutant β97V-D (TCR, V domains shown)
V domain 1: B1 V domain 1
V domain 2: B1 V domain 2 with V97D, Y98P
On to B7, for which the “TCR Mut RLU/WT RLU” value came to 0.21 ratio.

B8: B8.2.4 TCR mutant β95Q-C (TCR, V domains shown)
V domain 1: B1 V domain 1
V domain 2: B1 V domain 2 with Q95C, Y98P
On to B8, for which the “TCR Mut RLU/WT RLU” value came to 1.14 ratio.

B9: B8.2.4 TCR mutant β96T-R (TCR, V domains shown)
V domain 1: B1 V domain 1
V domain 2: B1 V domain 2 with T96R, Y98P
As to B9, the “TCR Mut RLU/WT RLU” value came to 0.49 ratio.

B10: B8.2.4 TCR mutant β95Q-V (TCR, V domains shown)
V domain 1: B1 V domain 1
V domain 2: B1 V domain 2 with Q95V, Y98P
Consider B10, for which the “TCR Mut RLU/WT RLU” value worked out at 0.76 ratio.

B11: B8.2.4 TCR mutant β96T-C (TCR, V domains shown)
V domain 1: B1 V domain 1
V domain 2: B1 V domain 2 with T96C, Y98P
On to B11, for which the “TCR Mut RLU/WT RLU” value came out at 0.78 ratio.

B12: B8.2.4 TCR mutant β95Q-F (TCR, V domains shown)
V domain 1: B1 V domain 1
V domain 2: B1 V domain 2 with Q95F, Y98P
As for B12, the “TCR Mut RLU/WT RLU” value was found to be 0.34 ratio.

B13: B8.2.4 TCR mutant β97V-A (TCR, V domains shown)
V domain 1: B1 V domain 1
V domain 2: B1 V domain 2 with V97A, Y98P
Regarding B13, the “TCR Mut RLU/WT RLU” value was 0.56 ratio.

B14: B8.2.4 TCR mutant β95Q-H (TCR, V domains shown)
V domain 1: B1 V domain 1
V domain 2: B1 V domain 2 with Q95H, Y98P
B14: the “TCR Mut RLU/WT RLU” value came out at 0.68 ratio.

B15: B8.2.4 TCR mutant β96T-W (TCR, V domains shown)
V domain 1: B1 V domain 1
V domain 2: B1 V domain 2 with T96W, Y98P
For the molecule B15, the “TCR Mut RLU/WT RLU” value was 0.64 ratio.

B16: B8.2.4 TCR mutant β95Q-W (TCR, V domains shown)
V domain 1: B1 V domain 1
V domain 2: B1 V domain 2 with Q95W, Y98P
Turning to B16, the “TCR Mut RLU/WT RLU” value turned out to be 0.88 ratio.

B17: B8.2.4 TCR mutant β96T-K (TCR, V domains shown)
V domain 1: B1 V domain 1
V domain 2: B1 V domain 2 with T96K, Y98P
Regarding B17, the “TCR Mut RLU/WT RLU” value was determined as 0.84 ratio.

B18: B8.2.4 TCR mutant β96T-V (TCR, V domains shown)
V domain 1: B1 V domain 1
V domain 2: B1 V domain 2 with T96V, Y98P
For B18, the “TCR Mut RLU/WT RLU” value stood at 0.97 ratio.

B19: B8.2.4 TCR mutant β95Q-P (TCR, V domains shown)
V domain 1: B1 V domain 1
V domain 2: B1 V domain 2 with Q95P, Y98P
Regarding B19, the “TCR Mut RLU/WT RLU” value stood at 0.21 ratio.

B20: B8.2.4 TCR mutant β96T-P (TCR, V domains shown)
V domain 1: B1 V domain 1
V domain 2: B1 V domain 2 with T96P, Y98P
For the molecule B20, the “TCR Mut RLU/WT RLU” value worked out at 0.39 ratio.

B21: B8.2.4 TCR mutant β96T-F (TCR, V domains shown)
V domain 1: B1 V domain 1
V domain 2: B1 V domain 2 with T96F, Y98P
Regarding B21, the “TCR Mut RLU/WT RLU” value was 0.42 ratio.

B22: B8.2.4 TCR mutant β97V-C (TCR, V domains shown)
V domain 1: B1 V domain 1
V domain 2: B1 V domain 2 with V97C, Y98P
Turning to B22, the “TCR Mut RLU/WT RLU” value is 0.37 ratio.

B23: B8.2.4 TCR mutant β95Q-Y (TCR, V domains shown)
V domain 1: B1 V domain 1
V domain 2: B1 V domain 2 with Q95Y, Y98P
In the case of B23, the “TCR Mut RLU/WT RLU” value stood at 0.92 ratio.

B24: B8.2.4 TCR mutant β97V-E (TCR, V domains shown)
V domain 1: B1 V domain 1
V domain 2: B1 V domain 2 with V97E, Y98P
As for B24, the “TCR Mut RLU/WT RLU” value is 0.31 ratio.

B25: B8.2.4 TCR mutant β95Q-D (TCR, V domains shown)
V domain 1: B1 V domain 1
V domain 2: B1 V domain 2 with Q95D, Y98P
As to B25, the “TCR Mut RLU/WT RLU” value was determined as 0.6 ratio.

B26: B8.2.4 TCR mutant β96T-M (TCR, V domains shown)
V domain 1: B1 V domain 1
V domain 2: B1 V domain 2 with T96M, Y98P
With B26, the “TCR Mut RLU/WT RLU” value stood at 0.35 ratio.

B27: B8.2.4 TCR mutant β95Q-R (TCR, V domains shown)
V domain 1: B1 V domain 1
V domain 2: B1 V domain 2 with Q95R, Y98P
Take B27: the “TCR Mut RLU/WT RLU” value came to 0.43 ratio.

B28: B8.2.4 TCR mutant β95Q-I (TCR, V domains shown)
V domain 1: B1 V domain 1
V domain 2: B1 V domain 2 with Q95I, Y98P
With B28, the “TCR Mut RLU/WT RLU” value amounted to 0.74 ratio.

B29: B8.2.4 TCR mutant β96T-D (TCR, V domains shown)
V domain 1: B1 V domain 1
V domain 2: B1 V domain 2 with T96D, Y98P
For the molecule B29, the “TCR Mut RLU/WT RLU” value was 0.28 ratio.

B30: B8.2.4 TCR mutant β96T-S (TCR, V domains shown)
V domain 1: B1 V domain 1
V domain 2: B1 V domain 2 with T96S, Y98P
In the case of B30, the “TCR Mut RLU/WT RLU” value came to 0.8 ratio.

B31: B8.2.4 TCR mutant β95Q-G (TCR, V domains shown)
V domain 1: B1 V domain 1
V domain 2: B1 V domain 2 with Q95G, Y98P
In the case of B31, the “TCR Mut RLU/WT RLU” value was found to be 1.03 ratio.

B32: B8.2.4 TCR mutant β95Q-S (TCR, V domains shown)
V domain 1: B1 V domain 1
V domain 2: B1 V domain 2 with Q95S, Y98P
Turning to B32, the “TCR Mut RLU/WT RLU” value worked out at 0.61 ratio.

B33: B8.2.4 TCR mutant β95Q-M (TCR, V domains shown)
V domain 1: B1 V domain 1
V domain 2: B1 V domain 2 with Q95M, Y98P
In the case of B33, the “TCR Mut RLU/WT RLU” value was determined as 0.99 ratio.

B34: B8.2.4 TCR mutant β96T-N (TCR, V domains shown)
V domain 1: B1 V domain 1
V domain 2: B1 V domain 2 with T96N, Y98P
For the molecule B34, the “TCR Mut RLU/WT RLU” value was found to be 0.82 ratio.

B35: B8.2.4 TCR mutant β95Q-E (TCR, V domains shown)
V domain 1: B1 V domain 1
V domain 2: B1 V domain 2 with Q95E, Y98P
As for B35, the “TCR Mut RLU/WT RLU” value amounted to 0.81 ratio.

B36: B8.2.4 TCR mutant β95Q-K (TCR, V domains shown)
V domain 1: B1 V domain 1
V domain 2: B1 V domain 2 with Q95K, Y98P
As for B36, the “TCR Mut RLU/WT RLU” value was 0.3 ratio.

B37: B8.2.4 TCR mutant β96T-H (TCR, V domains shown)
V domain 1: B1 V domain 1
V domain 2: B1 V domain 2 with T96H, Y98P
On to B37, for which the “TCR Mut RLU/WT RLU” value amounted to 0.82 ratio.

B38: B8.2.4 TCR mutant β96T-I (TCR, V domains shown)
V domain 1: B1 V domain 1
V domain 2: B1 V domain 2 with T96I, Y98P
As to B38, the “TCR Mut RLU/WT RLU” value was determined as 0.41 ratio.

B39: B8.2.4 TCR mutant β95Q-L (TCR, V domains shown)
V domain 1: B1 V domain 1
V domain 2: B1 V domain 2 with Q95L, Y98P
Take B39: the “TCR Mut RLU/WT RLU” value turned out to be 0.64 ratio.

B40: B8.2.4 TCR mutant β96T-L (TCR, V domains shown)
V domain 1: B1 V domain 1
V domain 2: B1 V domain 2 with T96L, Y98P
On to B40, for which the “TCR Mut RLU/WT RLU” value turned out to be 0.31 ratio.

B41: B8.2.4 TCR mutant β96T-G (TCR, V domains shown)
V domain 1: B1 V domain 1
V domain 2: B1 V domain 2 with T96G, Y98P
Take B41: the “TCR Mut RLU/WT RLU” value is 0.05 ratio.

B42: B8.2.4 TCR mutant β96T-Y (TCR, V domains shown)
V domain 1: B1 V domain 1
V domain 2: B1 V domain 2 with T96Y, Y98P
For the molecule B42, the “TCR Mut RLU/WT RLU” value was 0.4 ratio.

B43: B8.2.4 TCR mutant β96T-A (TCR, V domains shown)
V domain 1: B1 V domain 1
V domain 2: B1 V domain 2 with T96A, Y98P
In the case of B43, the “TCR Mut RLU/WT RLU” value was determined as 0.77 ratio.

B44: B8.2.4 TCR mutant β95Q-N (TCR, V domains shown)
V domain 1: B1 V domain 1
V domain 2: B1 V domain 2 with Q95N, Y98P
B44: the “TCR Mut RLU/WT RLU” value came out at 0.6 ratio.
